Results on six molecules are retold here after patent US20240190989A1 (BEIGENE SWITZERLAND, published 2024).

By Kd is commonly meant the concentration at which binding is half-saturated. The low end stands for tighter binding, the high end for weaker binding. As usually defined, the EC50 is the concentration needed to bring the measured effect to its halfway point. Low readings indicate an effect from little substance, high ones a need for much substance. The term EC50 (read off the curve) denotes the concentration that produces a half-maximal response. Higher therefore signals a need for much substance.

In assay [1] the target is T1, full-length human CD137 on cells (Hut78/huCD137, HEK293 transfectants, JK-NFKB-CD137) (human, UniProt Q07011 24-255). In words: cell-based or functional assay.
The target of assay [2] is T1, full-length human CD137 on cells …. Kind of assay: cell-based or functional assay. This is another data set of the same source.
Assay [3] concerns the target T2, human CD137 ECD-mIgG2a (human).
T2 construct: ECD 24-183 of huCD137 fused to mouse IgG2a Fc; also called huCD137-mIgG2a; huCD137
Kind of assay: SPR, A-CEAxCD137 format. (In SPR one partner is held on a chip, and binding of the other changes the refractive index at the surface.)

Assay [4] deals with T1, full-length human CD137 on cells …. Kind of assay: flow cytometry on Hut78/huCD137 cells.
Assay [5] shares this target. Kind of assay: flow cytometry on Hut78/huCD137 cells [panel B]. Background: A flow cytometer gives signals particle by particle.
Assay [6] has as its target T3, full-length human CEA on cells (MKN45, LOVO, L929/huCEA, CT26/CEA, CT26-OS8-CEA) (human, UniProt P06731 35-685).
T3 construct: also called CEACAM5; native CEA
T3 sequence: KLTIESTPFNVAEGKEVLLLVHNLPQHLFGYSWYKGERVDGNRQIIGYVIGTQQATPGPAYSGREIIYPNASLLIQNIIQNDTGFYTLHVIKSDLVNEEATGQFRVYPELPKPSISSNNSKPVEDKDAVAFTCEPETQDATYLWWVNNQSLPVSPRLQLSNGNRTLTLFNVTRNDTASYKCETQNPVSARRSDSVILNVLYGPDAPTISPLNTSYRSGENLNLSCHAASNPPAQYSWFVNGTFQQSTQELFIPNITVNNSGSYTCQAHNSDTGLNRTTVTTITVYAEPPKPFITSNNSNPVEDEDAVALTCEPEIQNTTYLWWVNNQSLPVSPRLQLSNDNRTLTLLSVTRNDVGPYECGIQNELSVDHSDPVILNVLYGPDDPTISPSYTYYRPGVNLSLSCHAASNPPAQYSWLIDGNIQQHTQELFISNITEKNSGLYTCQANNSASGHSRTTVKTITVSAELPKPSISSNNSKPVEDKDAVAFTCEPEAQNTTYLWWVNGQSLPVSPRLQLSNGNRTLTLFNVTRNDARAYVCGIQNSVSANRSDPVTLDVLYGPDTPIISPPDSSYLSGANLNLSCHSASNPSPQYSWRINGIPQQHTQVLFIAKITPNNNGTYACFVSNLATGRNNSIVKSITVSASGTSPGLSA
Kind of assay: flow cytometry on CT26/CEA cells [panel A].

In assay [7] the target is T1, full-length human CD137 on cells …. In words: flow cytometry on Hut78/huCD137 cells [panel A].
For assay [8], the target named is T2, human CD137 ECD-mIgG2a. In words: SPR, Fc-fusion VH captured.
Assay [9] addresses T1, full-length human CD137 on cells …. In words: flow cytometry on Hut78/huCD137 cells. The source holds these as a separate data set.
The target is the same in assay [10]. In words: flow cytometry competition on Hut78/huCD137 cells: serially diluted human CD137 ligand-mIgG2a against BGA-4712 VH-Fc, bound VH-Fc detected with anti-hu IgG Fc [panel B].
Assay [11] addresses T2, human CD137 ECD-mIgG2a. In words: competition ELISA on coated human CD137 ECD-mIgG2a: serially diluted human CD137 ligand ECD-mIgG2a against BGA-5623 (IgG4), bound antibody detected with anti-human IgG-HRP [panel A]. (An ELISA detects its analyte on a solid surface through an enzyme-linked reagent.)

Residue numbers refer to the chain shown, from its start.

T1 sequence (Q07011 24-255 limits assumed): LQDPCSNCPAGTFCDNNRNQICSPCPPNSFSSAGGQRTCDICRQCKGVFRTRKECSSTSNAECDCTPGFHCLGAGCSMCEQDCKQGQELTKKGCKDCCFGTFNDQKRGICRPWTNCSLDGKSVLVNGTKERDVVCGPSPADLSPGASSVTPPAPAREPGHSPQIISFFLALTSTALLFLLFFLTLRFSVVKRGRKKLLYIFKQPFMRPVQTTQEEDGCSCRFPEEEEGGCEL
T2 sequence (chain, as listed by the source limits assumed): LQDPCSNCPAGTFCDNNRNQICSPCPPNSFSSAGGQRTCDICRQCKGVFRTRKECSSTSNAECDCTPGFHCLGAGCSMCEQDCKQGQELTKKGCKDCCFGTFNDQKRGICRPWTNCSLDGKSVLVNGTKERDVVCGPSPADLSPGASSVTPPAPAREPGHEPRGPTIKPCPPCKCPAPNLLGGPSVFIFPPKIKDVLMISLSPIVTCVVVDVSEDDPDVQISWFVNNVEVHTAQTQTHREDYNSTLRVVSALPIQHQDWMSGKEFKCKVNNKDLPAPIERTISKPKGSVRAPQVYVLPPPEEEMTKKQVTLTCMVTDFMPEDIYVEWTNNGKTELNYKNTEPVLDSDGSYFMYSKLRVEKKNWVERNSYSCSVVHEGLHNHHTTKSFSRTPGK

B1: BE-189 (Format A BGA-5623) (bispecific antibody, human IgG1, kappa)
heavy: QVQLVQSGAEVKKPGASVKVSCKASGYIFTSYYLHWVRQAPGQGLEWIGYINPQTGKTSYAQKFQGRVTMTRDTSTSTVYMELSSLRSEDTAVYYCAREYGNYNYPLDYWGQGTLVTVSSASTKGPSVFPLAPSSKSTSGGTAALGCLVKDYFPEPVTVSWNSGALTSGVHTFPAVLQSSGLYSLSSVVTVPSSSLGTQTYICNVNHKPSNTKVDKKVEPKSCDKTHTCPPCPAPPAAGPSVFLFPPKPKDTLMISRTPEVTCVVVDVSHEDPEVKFNWYVDGVEVHNAKTKPREEQYNSTYRVVSVLTVLHQDWLNGKEYKCKVSNKALAAPIEKTISKAKGQPREPQVYTLPPSREEMTKNQVSLTCLVKGFYPSDIAVEWESNGQPENNYKTTPPVLDSDGSFFLYSKLTVDKSRWQQGNVFSCSVMHEALHNHYTQKSLSLSPGKGGGGSEVQLLESGGGLVQPGGSLRLSCAASGFTVSAEDVGWVRQAPGKGLEWVSAILDKGGSTYYAESVKGRFTISRDNAKNTLYLQMSSLRAEDTAVYYCARIVYHAGGGVTFDTRGQGTQVTVSS
light: DIQMTQSPSSLSASVGDRVTITCRASENQYGYLAWYQQKPGKVPKLLIYNYKNLVEGVPSRFSGSGSGTDFTLTISSLQPEDVATYYCQHHLGTPYTFGQGTKVEIKRTVAAPSVFIFPPSDEQLKSGTASVVCLLNNFYPREAKVQWKVDNALQSGNSQESVTEQDSKDSTYSLSSTLTLSKADYEKHKVYACEVTHQGLSSPVTKSFNRGEC
notes: Module ratio 2:2, inert Fc
As to B1, the “Functional assay EC50 (PBMC cytokine release, in vitro CD137 activation)” value in assay [1] stood at 0.31 µg/mL. In addition, the “Functions EC50 (PBMC cytokine release)” value in [2] was 0.341 µg/mL. The Kd in [3] was 94.8 nM. Besides, the EC50 in assay [4] came to 0.38 µg/mL.

B2: Format A BGA-3386 (bispecific antibody, human IgG1, kappa)
heavy: B1 heavy with R566W, Q571L
light: B1 light
For the molecule B2, the “Functions EC50 (PBMC cytokine release)” value in [2] was 0.0768 µg/mL. Moreover, binding in assay [3] was characterised by a dissociation constant (Kd) of 21.4 nM. In assay [4], this molecule displayed a 50% effective concentration (EC50) of 0.21 µg/mL.

B3: anti-CEA Ab (IgG1) (antibody, V domains shown)
VH: QVQLVQSGAEVKKPGASVKVSCKASGYIFTSYYLHWVRQAPGQGLEWIGYINPQTGKTSYAQKFQGRVTMTRDTSTSTVYMELSSLRSEDTAVYYCAREYGNYNYPLDYWGQGTLVTVSS
VL: DIQMTQSPSSLSASVGDRVTITCRASENQYGYLAWYQQKPGKVPKLLIYNYKNLVEGVPSRFSGSGSGTDFTLTISSLQPEDVATYYCQHHLGTPYTFGQGTKVEIKR
Turning to B3, the binding result in assay [5] is listed as “no binding (tested: last point just above 10^2 ug/ml)”.

B4: BGA-4712 (anti-huCD137 VH domain antibody as VH-Fc with inert human IgG1 Fc) (Fc fusion)
chain: EVQLLESGGGLVQPGGSLRLSCAASGFMLSAEDVGWVRQAPGKGLEWVSAILDFGGSTYYADSVKGRFTISRDNSKNTLYLQMNSLRAEDTAVYYCARVVYHAGGGVTFDYWGQGTLVTVSSGGGGSDKTHTCPPCPAPPAAGPSVFLFPPKPKDTLMISRTPEVTCVVVDVSHEDPEVKFNWYVDGVEVHNAKTKPREEQYNSTYRVVSVLTVLHQDWLNGKEYKCKVSNKALAAPIEKTISKAKGQPREPQVYTLPPSREEMTKNQVSLTCLVKGFYPSDIAVEWESNGQPENNYKTTPPVLDSDGSFFLYSKLTVDKSRWQQGNVFSCSVMHEALHNHYTQKSLSLSPGK
In the case of B4, in assay [6], the binding result was “no binding (tested: last point just above 10^2 ug/ml)”. The “EC50 (read off the curve)” value in [7] was about 3 µg/mL.

B5: BGA-5623-mutFc (Fc fusion VH Ab) (Fc fusion)
chain: B4 chain with M28T, L29V, F54K, D62E, S75A, N84S, V99I, Y111T, W112R, L117Q
For the molecule B5, the Kd in assay [8] was determined as 50.3 nM. Besides, the “EC50 (read off the curve)” value in assay [9] is about 0.5 µg/mL.

B6: human CD137 ligand-mIgG2a (Fc fusion)
chain: EPRGPTIKPCPPCKCPAPNLLGGPSVFIFPPKIKDVLMISLSPIVTCVVVDVSEDDPDVQISWFVNNVEVHTAQTQTHREDYNSTLRVVSALPIQHQDWMSGKEFKCKVNNKDLPAPIERTISKPKGSVRAPQVYVLPPPEEEMTKKQVTLTCMVTDFMPEDIYVEWTNNGKTELNYKNTEPVLDSDGSYFMYSKLRVEKKNWVERNSYSCSVVHEGLHNHHTTKSFSRTPGKGGGGSREGPELSPDDPAGLLDLRQGMFAQLVAQNVLLIDGPLSWYSDPGLAGVSLTGGLSYKEDTKELVVAKAGVYYVFFQLELRRVVAGEGSGSVSLALHLQPLRSAAGAAALALTVDLPPASSEARNSAFGFQGRLLHLSAGQRLGVHLHTEARARHAWQLTQGATVLGLFRVTPEIPAGLPSPRSE
notes: also called human CD137 ligand ECD-mIgG2a; huCD137 ligand
In the case of B6, the “IC50 (read off the curve)” value in [10] is about 0.4 µg/mL; in assay [11], about 1 µg/mL.
